Like-named read-outs stand apart in the source and are kept apart here.
How the values were obtained:
DR3 = assay: FACS binding of FLAG-tagged soluble TL1β to cells transfected with DR3; design: species or system human
Experimental: A FLAG-tagged soluble form of the TL1 (aa 72-251) protein was tested for binding of cells transiently transfected with different members of the TNFR family, including TNFR2, LTβR, 4-1BB, CD27, CD30, BCMA, DR3, DR4, DR5, DR6, DcR1, DcR2, RANK, HveA, and AITR. […] The small shift (˜30%) seen when full length DR3 was used is likely due to the presence of low DR3-expressing cells while DR3 overexpressed cells undergone apoptosis.
(§1) One million cells, in 0.1 ml of FACS buffer (PBS, 0.1% BSA, 0.1% NaN3), were incubated with 0.1-1 microgram of protein or antibody at RT for 15 min. The cells were washed with 3 ml of FACS buffer, reacted with biotinylated primary antibody, and stained with PE-conjugated secondary antibody at RT for 15 min. Cells were then washed again, resuspended in 0.5 microgram/ml of propidium iodide, and live cells were gated and analyzed on a FACScan using the CellQuest software (BD Biosciences).

TF-1/SRE-SEAP cells = assay: SEAP assay: TNF-gamma-beta induced SEAP in TF-1/SRE-SEAP reporter cells; assay type: cell-based; settings: without TNF-gamma-beta
Experimental: (§2) Briefly, a poly-D-lysine coated 96-well plate is seeded with TF-1/SRE-SEAP cells (in RPMI+0.2% Fetal bovine serum) at 75,000 cells per well. […] Again cells were incubated overnight. After overnight incubation, conditioned media were collected and SEAP activity was determined using the SEAP Reporter Gene Assay available from Roche Molecular Biochemicals (Indianapolis, Ind.) according to the manufacturer's directions. Briefly, Conditioned media were diluted 1:4 into dilution buffer. Samples were incubated at 65C for 30 minutes to eliminate contaminating AP activity usually present in culture medium. 25 microliters of the heat-inactivated samples were mixed with equal volume of inactivation buffer (containing a mixture of differential alkaline phosphatase inhibitors). Following a 5-minute incubation at room temperature, 50 uL of alkaline phosphatase substrate (CSPD) was added to each well. Chemiluminescence signal was read 10-15 minutes later using a luminometer.
(§3) The premyeloid cell line TF-1 was stably transfected with SRE/SEAP (Signal Response Element/Secreted Alkaline Phosphatase) reporter plasmid that responds to the SRE signal transduction pathway.

TNF-gamma-beta [1] = target: T1, TNF-gamma-beta (Homo sapiens, UniProt O95150); assay: Neutralization of TNF-gamma-beta induced SEAP production in TF-1/SRE reporter cells; assay type: cell-based; settings: TNF-gamma-beta at 200 ng/mL, TF1/SRE reporter cells
T1 construct: made in house; host or cells: 293T cells, transient transfection
T1 sequence (O95150 72-251 limits assumed): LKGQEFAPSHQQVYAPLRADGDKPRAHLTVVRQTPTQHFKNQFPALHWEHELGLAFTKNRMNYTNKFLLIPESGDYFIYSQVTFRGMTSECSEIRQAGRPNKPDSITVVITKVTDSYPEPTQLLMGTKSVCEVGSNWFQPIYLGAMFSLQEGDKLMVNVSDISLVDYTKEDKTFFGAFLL
Experimental: as §2
These solutions were then incubated for 1 hour at room temperature. […] After the overnight incubation, the SEAP assay was performed as described above.
as §3

TNF-gamma-beta [2] = target: T2, TNF-gamma-beta (Homo sapiens, UniProt O95150); assay: Inhibition of TNF-gamma-beta induced caspase activation in TF-1 cells; assay type: cell-based; settings: presence of cycloheximide
T2 construct: made in house; host or cells: E. coli (untagged) or 293T (FLAG-tagged)
T2 sequence (O95150 72-251): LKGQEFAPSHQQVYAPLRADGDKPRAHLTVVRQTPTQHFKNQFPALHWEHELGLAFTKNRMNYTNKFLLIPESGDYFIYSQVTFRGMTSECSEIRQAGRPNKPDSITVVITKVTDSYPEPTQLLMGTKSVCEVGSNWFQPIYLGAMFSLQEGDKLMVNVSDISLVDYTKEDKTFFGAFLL
Experimental: Briefly, cells growing in microtiter plates are induced to undergo apoptosis, causing an activation of caspase activities. Equal volume of a caspase substrate (Asp-Glu-Val-Asp-Rhodamine 110, or DEVD-R110) solution is then added and incubated for at least 1 hour. During this incubation, cells are being lysed and free R110 is released from the substrate. The level of free R110 is determined fluorimetrically, using a fluorescence reader with excitation filter 470-500 nm and emission filter 500-560 nm.
A black 96-well plate with a clear bottom is seeded with 75,000 TF-1 cells in RPMI containing 1% fetal bovine serum and micrograms/milliliter cyclohexamide. […] Following the manufacturer's directions, an equal volume of 1×substrate solution containing 50 micromolar DEVD-R110 diluted in incubation buffer is added to each well. The 96-well plates are then incubated for 2 hours after which the plate is read in a fluorescence reader with an excitation filter at 485 nm and an emission filter at 535 nm.
These solutions were then incubated for 1 hour at room temperature.
The reagents were incubated for 1 hour at RT to allow the formation of protein-TNF-gamma-beta complexes and then added to the cells. Caspase activity was measured as described above.

TNF-gamma-beta [3] = target: T2, TNF-gamma-beta; assay: Inhibition of TNF-gamma-beta activation of NF-κB in 293T cells; assay type: cell-based
Experimental: To avoid spontaneous apoptosis or NF-κB activation accompanied with DR3 overexpression, a limited amount of DR3-expression DNA that by itself minimally activated these pathways was used.
293T cells were transiently transfected using LipofectAMINE and PLUS reagents according to the manufacturer's instruction (Invitrogen). For reporter assays, 293T cells, at 5×10^5 cells/well, were seeded in 6-well plates and transfected with a total of 1 microgram of DNA. pC4 DNA was used as filler DNA. Conditioned supernatant was collected 24 hr post-transfection and assayed for secreted alkaline phosphatase (SEAP) activity using the Phospha-Light™ chemiluminescent reporter gene assay system (Tropix). pCMV-lacZ was used as internal control for transfection efficiency normalization.

TNF-gamma-beta [4] = target: T1, TNF-gamma-beta; assay: Coimmunoprecipitation of TNF-gamma-beta by TNFR-Fc proteins; assay type: binding
From the text: The beads were then precipitated and washed extensively with PBST buffer (PBS, 0.5% Triton X-100) before boiled in SDS-sample buffer. Proteins were resolved on 4-20% Tris-Glycine gels (NOVEX), transferred to nitrocellulose membranes, and blotted with anti-Flag M2 monoclonal antibody (1 microgram/ml, Sigma) andhorseradish peroxidase (HRP)-conjugated goat anti-mouse IgG antibody (0.5 microgram/ml).

TNF-gamma-beta [5] = target: T3, TNF-gamma-beta (Homo sapiens, UniProt O95150); assay: FACS binding of receptor-Fc proteins to cells expressing full length TNF-gamma-beta
T3 construct: expressed in transfected cells
T3 sequence (O95150 1-251): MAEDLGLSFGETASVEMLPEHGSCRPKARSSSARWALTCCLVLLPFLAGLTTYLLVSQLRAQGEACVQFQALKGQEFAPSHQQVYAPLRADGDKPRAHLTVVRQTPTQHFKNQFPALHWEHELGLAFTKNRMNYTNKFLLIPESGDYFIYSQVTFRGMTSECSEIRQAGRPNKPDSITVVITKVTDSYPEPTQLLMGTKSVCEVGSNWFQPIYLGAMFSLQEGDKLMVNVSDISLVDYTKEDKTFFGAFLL
Experimental: These cells were used to screen the Fc-fusion form of the extracellular domain of TNFR family members, including TNFR1, Fas, HveA, DR3, DR4, DR5, DR6, DcR1, DcR2, TR6, OPG, RANK, AITR, TAC1, CD40, and OX40. […] TR6 has been previously described as a decoy receptor (Pitti et al., Nature 396:699-703 (1998); Yu et al., J. Biol. Chem. 274:13733-6 (1999)) capable of competing with Fas and HveA for binding of FasL and LIGHT, respectively.
Cells resistant to 0.5 mg/ml Genticin (Invitrogen) were selected and expanded. Expression of TNF-gamma-beta mRNA was confirmed by quantitative RT-PCR analysis and surface expression of TNF-gamma-beta protein confirmed by FACS analyses using TNF-gamma-beta monoclonal antibodies.
as §1

TNF-gamma-beta [6] = target: T2, TNF-gamma-beta; assay: Inhibition of TNF-gamma-beta-mediated IFNγ secretion from T cells; assay type: cell-based; settings: costimulated T cells
Experimental: The extent of the increase in IL-2 receptor expression is consistent with the moderate increase in IL-2 responsiveness compared with IL-2 itself.
1×10^5 cells/ml of purified T cells were seeded in a 24-well tissue culture plate that had been coated with anti-CD3 (0.3 microgram/ml) and anti-CD28 (5.0 microgram/ml) overnight at 4° C. […] ELISA assay for IFNγ, GM-CSF, IL-2 IL-4, IL-10 and TNFα were performed using kits purchased from R & D Systems. Recombinant human IL-2 (5 ng/ml) was used as a positive control. All samples were tested in duplicate and results were expressed as an average of duplicate samples plus or minus error.

primary T cells = assay: Caspase assay in PHA-activated primary T cells; assay type: cell-based, human; settings: presence or absence of cycloheximide
Experimental: Overexpression of DR3 in cell lines induces capase activation (Chinnaiyan et al., Science 274:990-2 (1996); Kitson et al., Nature 384:372-5 (1996); Marsters et al., Curr. Biol. 6:1669-76 (1996); Bodmer et al., Immunity 6:79-88 (1997)). We tested whether TL1β could induce caspase activation in primary T cells.
TF-1 cells or PHA-activated primary T cells were seeded at 75,000 cells/well in a black 96-well plate with clear bottom (Becton Dickinson) in RPMI Medium containing 1% fetal bovine serum (Biowhittaker). […] Caspase activity was measured directly in the wells by adding equal volume of a lysis buffer containing 25 μM DEVD-rodamine 110 (Roche Molecular Biochemicals), and allowed the reaction to proceed at 37C for 1 to 2 hours. Release of rodarmine 110 was monitored with a Wallac Victor2 fluorescence plate reader with excitation filter 485 nm and emission filter 535 nm.

“FLAG-TL1β: FLAG-tagged soluble form of the TL1 (aa 72-251) protein” was tested, and the “binding to cells expressing full length or DD-deleted DR3” value (DR3) was “consisitently detected”.

B1: TR6.Fc: full length TR6 (aa 1-300) fused to the Fc domain of human IgG1 (protein)
chain: VAETPTYPWRDAETGERLVCAQCPPGTFVQRPCRRDSPTTCGPCPPRHYTQFWNYLERCRYCNVLCGEREEEARACHATHNRACRCRTGFFAHAGFCLEHASCPPGAGVIAPGTPSQNTQCQPCPPGTFSASSSSSEQCQPHRNCTALGLALNVPGSSSHDTLCTSCTGFPLSTRVPGAEECERAVIDFVAFQDISIKRLQRLLQALEAPEGWGPTPRAGRAALQLKLRRRLTELLGAQDGALLVRLLQALRVARMPGLERSVRERFLPVH
modifications: left off: a dimerising Fc or GST
notes: full length TR6 (aa 1-300) fused to the Fc domain of human IgG1
In the case of B1, the “SEAP activity of the Fc protein by itself” value (TF-1/SRE-SEAP cells) is reported as “showed no activity”, the “neutralization of TNF-gamma-beta SEAP activity by receptor-Fc” value (TNF-gamma-beta [1]) is reported as “can be neutralized by TR6.fc fusion protein in a dose dependent manner” and the “inhibition of TNF-gamma-beta induced caspase activation” value (TNF-gamma-beta [2]) is reported as “inhibited by either DR3-Fc or TR6-Fc protein”. The “inhibition of TNF-gamma-beta activation of NF-κB” value (TNF-gamma-beta [3]) was “able to inhibit”, the “inhibition of TNF-gamma-beta activation of NF-κB” value (TNF-gamma-beta [3]; listed as TR6-Fc) was “specifically inhibited” and the “immunoprecipitation of TNF-gamma-beta” value (TNF-gamma-beta [4]) was “can be used to immunoprecipitate TNF-gamma-beta”. The “immunoprecipitation of TNF-gamma-beta” value (TNF-gamma-beta [4]; listed as TR6-Fc) was “specifically interacted with FLAG-TNF-gamma-beta”, the “binding to cells expressing TNF-gamma-beta (FACS)” value (TNF-gamma-beta [5]) was “specifically bind cells transfected with TNF-gamma-beta” and the “binding to cells expressing TNF-gamma-beta (FACS)” value (TNF-gamma-beta [5]; listed as TR6-Fc) was “bound efficiently”. For the same molecule, the “inhibition of TNF-gamma-beta-mediated IFNγ secretion” value (TNF-gamma-beta [6]) was “able to inhibit”.

B2: FasL: Fas ligand, positive control for caspase activation in T cells (protein, UniProt P48023 130-281, looked up)
Tumor necrosis factor ligand …: QIGHPSPPPEKKELRKVAHLTGKSNSRSMPLEWEDTYGIVLLSGVKYKKGGLVINETGLYFVYSKVYFRGQSCNNLPLSHKVYMRNSKYPQDLVMMEGKMMSYCTTGQMWARSSYLGAVFNLTSADHLYVNVSELSLVNFEESQTFFGLYKL
With B2 the “caspase activity in PHA-activated T cells” value (primary T cells) was “readily measured”.

— patent US20030129189A1, “Tumor necrosis factor-gamma” (priority 1994, published 2003)
